“And” between values parts separate entries of the source, which are not always exact repeats. Equal entries are not always repeated.
Details: Homo sapiens, pH 5, 25 °C
[1] = GdnHCl, Fluorescence, Sodium acetate 50mM, transition: 2, structure 1TEN
[2] = Urea, CD, Sodium acetate 50 mM, structure 1TEN
[3] = GdnHCl, CD, Sodium acetate 50 mM, structure 1TTG
[4] = GdnHCl, Fluorescence, Sodium acetate 50mM, transition: 2, structure 1FNF

Chain of Fibronectin I1627V, P02751 (P02751 whole entry I1627V): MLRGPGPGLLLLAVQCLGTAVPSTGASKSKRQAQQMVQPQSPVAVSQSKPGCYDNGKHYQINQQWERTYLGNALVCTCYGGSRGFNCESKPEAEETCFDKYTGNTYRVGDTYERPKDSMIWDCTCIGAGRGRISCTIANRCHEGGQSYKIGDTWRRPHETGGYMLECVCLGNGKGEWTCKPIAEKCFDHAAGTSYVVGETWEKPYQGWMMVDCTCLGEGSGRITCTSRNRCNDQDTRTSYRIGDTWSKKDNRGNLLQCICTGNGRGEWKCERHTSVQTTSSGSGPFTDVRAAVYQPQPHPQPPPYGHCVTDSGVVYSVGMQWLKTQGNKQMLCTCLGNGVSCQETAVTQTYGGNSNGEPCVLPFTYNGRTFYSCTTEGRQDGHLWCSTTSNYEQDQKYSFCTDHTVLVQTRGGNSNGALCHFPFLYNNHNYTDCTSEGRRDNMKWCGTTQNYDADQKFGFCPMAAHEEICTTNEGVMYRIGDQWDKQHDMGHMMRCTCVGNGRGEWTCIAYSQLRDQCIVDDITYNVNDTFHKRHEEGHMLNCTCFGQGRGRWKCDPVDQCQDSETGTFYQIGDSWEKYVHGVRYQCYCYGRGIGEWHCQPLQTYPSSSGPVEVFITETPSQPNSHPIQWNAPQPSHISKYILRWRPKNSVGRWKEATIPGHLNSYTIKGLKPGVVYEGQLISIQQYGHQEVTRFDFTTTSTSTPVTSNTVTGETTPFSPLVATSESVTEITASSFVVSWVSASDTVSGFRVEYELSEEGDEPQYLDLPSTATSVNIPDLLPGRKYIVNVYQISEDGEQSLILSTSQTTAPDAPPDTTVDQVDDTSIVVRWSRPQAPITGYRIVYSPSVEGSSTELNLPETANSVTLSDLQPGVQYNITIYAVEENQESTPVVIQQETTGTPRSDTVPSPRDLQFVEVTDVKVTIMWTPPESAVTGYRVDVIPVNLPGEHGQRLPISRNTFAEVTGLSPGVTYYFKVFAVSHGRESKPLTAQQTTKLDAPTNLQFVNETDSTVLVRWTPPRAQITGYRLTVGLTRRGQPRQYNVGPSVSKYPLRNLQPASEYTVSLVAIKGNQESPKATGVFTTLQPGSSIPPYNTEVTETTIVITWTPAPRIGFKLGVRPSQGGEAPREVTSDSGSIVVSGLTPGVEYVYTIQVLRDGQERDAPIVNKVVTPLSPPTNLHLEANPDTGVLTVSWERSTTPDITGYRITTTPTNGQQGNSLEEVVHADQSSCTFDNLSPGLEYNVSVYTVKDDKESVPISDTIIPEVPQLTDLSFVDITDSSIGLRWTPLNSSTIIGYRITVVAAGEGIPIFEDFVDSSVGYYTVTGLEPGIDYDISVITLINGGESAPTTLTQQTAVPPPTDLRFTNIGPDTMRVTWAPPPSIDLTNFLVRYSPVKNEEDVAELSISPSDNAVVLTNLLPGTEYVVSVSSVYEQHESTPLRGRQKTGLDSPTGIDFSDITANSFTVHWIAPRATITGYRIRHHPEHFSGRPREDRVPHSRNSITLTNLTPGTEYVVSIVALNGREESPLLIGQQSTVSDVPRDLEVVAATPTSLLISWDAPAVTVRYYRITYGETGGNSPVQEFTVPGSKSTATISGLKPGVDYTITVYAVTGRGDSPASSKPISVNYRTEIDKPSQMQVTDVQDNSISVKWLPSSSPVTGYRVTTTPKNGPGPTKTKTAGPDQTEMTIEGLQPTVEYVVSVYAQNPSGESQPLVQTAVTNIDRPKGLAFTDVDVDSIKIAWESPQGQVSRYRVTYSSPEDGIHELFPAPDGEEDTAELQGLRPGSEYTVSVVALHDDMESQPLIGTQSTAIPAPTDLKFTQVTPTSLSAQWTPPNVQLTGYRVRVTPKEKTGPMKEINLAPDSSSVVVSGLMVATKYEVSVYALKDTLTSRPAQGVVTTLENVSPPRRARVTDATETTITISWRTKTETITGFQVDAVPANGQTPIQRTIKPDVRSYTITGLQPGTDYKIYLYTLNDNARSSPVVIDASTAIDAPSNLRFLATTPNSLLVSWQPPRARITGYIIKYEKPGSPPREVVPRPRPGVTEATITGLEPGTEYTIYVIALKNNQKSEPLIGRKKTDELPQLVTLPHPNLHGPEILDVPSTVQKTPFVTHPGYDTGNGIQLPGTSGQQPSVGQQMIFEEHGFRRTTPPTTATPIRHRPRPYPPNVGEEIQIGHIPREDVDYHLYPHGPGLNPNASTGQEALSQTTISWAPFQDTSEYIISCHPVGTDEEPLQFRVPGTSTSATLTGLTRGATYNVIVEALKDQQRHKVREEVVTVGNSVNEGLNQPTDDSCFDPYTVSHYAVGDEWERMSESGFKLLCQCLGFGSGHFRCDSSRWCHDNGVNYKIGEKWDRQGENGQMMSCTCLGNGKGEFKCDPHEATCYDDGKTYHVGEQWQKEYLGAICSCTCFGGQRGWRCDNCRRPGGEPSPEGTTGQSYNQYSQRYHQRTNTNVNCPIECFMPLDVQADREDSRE
Chain of Fibronectin A1611G, P02751 (P02751 whole entry A1611G): as the sequence (P02751 whole entry I1627V) above, with A1611G, V1627I counted along it

Substance	ddG of mutation (higher = less stable) [1] [kcal/mol]	denaturant midpoint (higher = more stable) [1] [M]	ddG of mutation (higher = less stable) [2]	denaturant m value [2] [kcal/mol/M]	denaturant midpoint (higher = more stable) [2] [M]	ddG of mutation (higher = less stable) [3]	denaturant m value [3] [kcal/mol/M]	denaturant midpoint (higher = more stable) [3] [M]	also measured
Tenascin, P24821 P806A	2.74	1.3	2.74 kcal/mol	1.1	3.07	–	–	–	denaturant m value [1]: 2.98 kcal/mol/M
Tenascin, P24821 S882A	2.82	1.1	–	–	–	–	–	–	denaturant m value [1]: 5.23 kcal/mol/M
Tenascin, P24821 I833V	0.5	1.4	0.5 kcal/mol	1.1	4.91	–	–	–	denaturant m value [1]: 1.8 kcal/mol/M
Fibronectin I1627A, P02751	–	–	–	–	–	0.35 kcal/mol	6	1.42	ddG of mutation (higher = less stable) [4]: 3.66 kcal/mol; denaturant m value [4]: 7.2 kcal/mol/M; denaturant midpoint (higher = more stable) [4]: 1.04 M; unfolding free energy [4]: 5.74 kcal/mol
Fibronectin V1603A, P02751	–	–	–	–	–	0.67 kcal/mol	6.12	1.37	–
Tenascin, P24821 L835A	–	–	4.29 kcal/mol	1.4	1.8	–	–	–	–
Tenascin, P24821 L851A	2.99	1.3	2.99 kcal/mol	1.3	2.87	–	–	–	denaturant m value [1]: 1.93 kcal/mol/M
Tenascin, P24821 A819G	2.8	1.3	2.8 kcal/mol	1.3	3.03	–	–	–	denaturant m value [1]: 2.31 kcal/mol/M
Tenascin, P24821 S875A	–	–	-0.04 kcal/mol	1.1	5.36	–	–	–	–
Fibronectin Y1629F, P02751	–	–	–	–	–	-0.11 kcal/mol	6.5	1.49	–
Tenascin, P24821 I830V	0.32	1.2	0.32 kcal/mol	1.2	5.06	–	–	–	denaturant m value [1]: 2.63 kcal/mol/M
Fibronectin L1555A, P02751	–	–	–	–	–	0.87 kcal/mol	6.3	1.34	–
Tenascin, P24821 Y858G	–	1.3	4.14 kcal/mol and 2.76 kcal/mol	1.3	1.93	–	–	–	denaturant m value [1]: 4.19 kcal/mol/M
Tenascin, P24821 T867S	–	–	1.22 kcal/mol	1.2	4.32	–	–	–	–
Tenascin, P24821 I821A	3.67	1.2	3.67 kcal/mol	1.3	2.31	–	–	–	denaturant m value [1]: 5.13 kcal/mol/M
Fibronectin I1627V, P02751	–	–	–	–	–	0.28 kcal/mol	6.3	1.43	ddG of mutation (higher = less stable) [4]: 1.12 kcal/mol; denaturant m value [4]: 7.1 kcal/mol/M; denaturant midpoint (higher = more stable) [4]: 0.91 M; unfolding free energy [4]: 8.28 kcal/mol
Tenascin, P24821 I809V	0.18	1.2	0.18 kcal/mol	1.3	5.17	–	–	–	denaturant m value [1]: 4.21 kcal/mol/M
Fibronectin A1594G, P02751	–	–	–	–	–	2.81 kcal/mol	7.1	1.04	–
Fibronectin Y1569F, P02751	–	–	–	–	–	0.41 kcal/mol	6.3	1.41	–
Fibronectin Y1605F, P02751	–	–	–	–	–	2.03 kcal/mol	6.2	1.16	–
Fibronectin V1566A, P02751	–	–	–	–	–	1.45 kcal/mol	6.6	1.25	–
Fibronectin P1601A, P02751	–	–	–	–	–	0.41 kcal/mol	6.6	1.41	–
Fibronectin P1542A, P02751	–	–	–	–	–	-0.11 kcal/mol	6.4	1.49	–
Fibronectin I1625A, P02751	–	–	–	–	–	0.35 kcal/mol	6.03	1.42	–
Fibronectin V1587A, P02751	–	–	–	–	–	2.42 kcal/mol	5.7	1.1	–
Fibronectin I1571A, P02751	–	–	–	–	–	5.02 kcal/mol	6.9	0.7	–
Tenascin, P24821 I833A	3.28	1.1	3.28 kcal/mol	1.2	2.63	–	–	–	denaturant m value [1]: 4.91 kcal/mol/M
Tenascin, P24821 P865A	0.93	1.2	0.93 kcal/mol	1.2	4.55	–	–	–	denaturant m value [1]: 4.32 kcal/mol/M

Substance	ddG of mutation (higher = less stable) [1] [kcal/mol]	denaturant midpoint (higher = more stable) [1] [M]	ddG of mutation (higher = less stable) [2]	denaturant m value [2] [kcal/mol/M]	denaturant midpoint (higher = more stable) [2] [M]	ddG of mutation (higher = less stable) [3]	denaturant m value [3] [kcal/mol/M]	denaturant midpoint (higher = more stable) [3] [M]	also measured
Tenascin, P24821 I830A	1.38	1.2	1.38 kcal/mol	1.1	4.19	–	–	–	denaturant m value [1]: 5.06 kcal/mol/M
Tenascin, P24821 I860V	0.83	1.5	0.83 kcal/mol	1.2	4.64	–	–	–	denaturant m value [1]: 1.86 kcal/mol/M
Tenascin, P24821 E887G	0.34	–	0.34 kcal/mol	1.3	5.04	–	–	–	–
Fibronectin L1545A, P02751	–	–	–	–	–	1.64 kcal/mol	6.2	1.22	–
Fibronectin I1571V, P02751	–	–	–	–	–	0.41 kcal/mol	6.9	1.41	–
Fibronectin A1550G, P02751	–	–	–	–	–	0.93 kcal/mol	6.1	1.33	–
Tenascin, P24821 L873A	–	–	3.06 kcal/mol	1.4	2.81	–	–	–	–
Fibronectin P1562A, P02751	–	–	–	–	–	0.48 kcal/mol	6.5	1.4	–
Fibronectin I1625V, P02751	–	–	–	–	–	0.35 kcal/mol	6.5	1.42	–
Fibronectin Y1629A, P02751	–	–	–	–	–	1.19 kcal/mol	6.6	1.29	–
Fibronectin V1547A, P02751	–	–	–	–	–	1.38 kcal/mol	6.8	1.26	–
Tenascin, P24821 Y869F	3.13	1.3	3.13 kcal/mol	1.3	2.75	–	–	–	denaturant m value [1]: 3.01 kcal/mol/M
Tenascin, P24821 I809A	2.86	1.3	2.86 kcal/mol	1.3	2.98	–	–	–	denaturant m value [1]: 5.17 kcal/mol/M
Fibronectin Y1569A, P02751	–	–	–	–	–	4.37 kcal/mol and 3.96 kcal/mol	6.8	0.8	–
Fibronectin I1596V, P02751	–	–	–	–	–	1.12 kcal/mol	7.1	1.3	–
Fibronectin A1611G, P02751	–	–	–	–	–	1.38 kcal/mol	6.2	1.26	–
Tenascin, P24821 I849A	2.19	1.1	2.19 kcal/mol	1.1	3.52	–	–	–	denaturant m value [1]: 2.87 kcal/mol/M
Tenascin, P24821 P826A	–	–	1.73 kcal/mol	1	3.9	–	–	–	–
Fibronectin Y1573A, P02751	–	–	–	–	–	2.29 kcal/mol	7.9	1.12	–
Fibronectin I1596A, P02751	–	–	–	–	–	3.66 kcal/mol	7.2	0.91	–
Fibronectin I1607A, P02751	–	–	–	–	–	3.72 kcal/mol	5.6	0.9	–
Tenascin, P24821 Y858A	1.38	1.3	1.38 kcal/mol	1.3	4.19	–	–	–	–
Fibronectin Y1569L, P02751	–	–	–	–	–	2.81 kcal/mol and 2.4 kcal/mol	6.6	1.04	–
Fibronectin S1622A, P02751	–	–	–	–	–	-0.11 kcal/mol	6.5	1.49	–
Fibronectin L1599A, P02751	–	–	–	–	–	2.94 kcal/mol	6.6	1.02	–
Tenascin, P24821 P884A	–	–	0.11 kcal/mol	1.1	5.23	–	–	–	–
Tenascin, P24821 F889A	5.43	–	5.43 kcal/mol	–	0.9	–	–	–	–

Source: FireProtDB (doi:10.1006/jmbi.2000.4053)
